Laboratory results taken from PMC6395948 (Molecular Cell, 2019).

How the values were obtained:
[1] = target: T1, McbD (Escherichia coli, UniProt P23186 1-396); assay: crystal structure
T1 sequence: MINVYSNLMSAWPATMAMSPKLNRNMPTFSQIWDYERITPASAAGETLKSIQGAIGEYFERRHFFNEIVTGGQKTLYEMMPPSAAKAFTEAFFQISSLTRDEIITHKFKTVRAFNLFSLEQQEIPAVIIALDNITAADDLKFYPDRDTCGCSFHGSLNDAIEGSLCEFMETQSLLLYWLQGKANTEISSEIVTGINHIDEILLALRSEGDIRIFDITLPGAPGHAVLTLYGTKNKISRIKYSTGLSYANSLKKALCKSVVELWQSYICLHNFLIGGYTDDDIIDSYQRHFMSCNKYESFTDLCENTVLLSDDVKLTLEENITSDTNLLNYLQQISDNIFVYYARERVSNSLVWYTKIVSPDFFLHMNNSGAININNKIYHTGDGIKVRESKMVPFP

[2] = target: the molecule itself; assay: crystal structure

binding result [1]: binds
B1: McbB (natural protein, Escherichia coli)
chain: MVLPDIKKGKDMINILPFEIISRNTKTLLITYISSVDITHEGMKKVLESLRSKQGIISEYLLDKLLDESLIDKDKGKEFLITTGVINKTKTSPLWVNSVIISDVPHLFSNAREQWKCDGVFVSHIIDIKDNNINVSDSTLIWLHLENYHSDIVKRIYSKFESNPGVAFIQSYYLKESFRIDGVYSPDLGTPCHFCHIERWLSREEKSFRRNEMSWANLLQLLKKYQMTLPALALGESERGFSYHLIKRRLQELTGTSLVKSHVDNFMSSVSADLITCILCKEPVIHWQACSCLER
stoichiometry N [2]: 2
